These results are taken from US20250011363A1, “OPTIMIZED SHORTENED PEPTIDE THAT BINDS TO ACETYLCHOLINE RECEPTOR, AND USE THEREOF” (SKINMED CO., LTD., priority 2021, published 2025).

In assay [1] the target is acetylcholine receptor. Kind of assay: SPR, AchR immobilised on CM5 chip, peptide at 10 uM. On the technique in general: Surface plasmon resonance follows binding to a sensor surface in real time, without labels.
For assay [2], the target named is acetylcholine receptor. The assay can be described thus: SPR, AchR immobilised on chip, peptide at 10 uM.

RKSILK [6mer-1-412]: in the assay with acetylcholine receptor [1], the Binding affinity (RU) came to 139 RU.

RKVLRR [6mer-1-454] displayed a Binding affinity (RU) with acetylcholine receptor [1] of 124 RU.

In the case of KRSFLR [6mer-1-414], the Binding affinity (RU) in the assay with acetylcholine receptor [1] was 153 RU.

Regarding RKQQYR [6mer-1-433], the Binding affinity (RU) with acetylcholine receptor [1] was 154 RU.

With RLRYRK [6mer-2-277], the Binding affinity with acetylcholine receptor [2] stood at 128 RU.

As to RLFQKK [6mer-2-271], the Binding affinity with acetylcholine receptor [2] was 131 RU.

Turning to KRWVLR [6mer-1-427], in the assay with acetylcholine receptor [1], the Binding affinity (RU) came out at 147 RU.

In turn, KKWILK [6mer-1-444] displayed a Binding affinity (RU) with acetylcholine receptor [1] of 144 RU.

For the molecule RKWFLK [6mer-1-437], the Binding affinity (RU) with acetylcholine receptor [1] was 131 RU.

In the case of RRGQYR [6mer-1-456], the Binding affinity (RU) in the assay with acetylcholine receptor [1] worked out at 153 RU.

In the assay with acetylcholine receptor [1], RRGYCK [6mer-1-423] showed a Binding affinity (RU) of 147 RU.

On to KKGQYK [6mer-1-420], for which the Binding affinity (RU) with acetylcholine receptor [1] is 148 RU.

In the assay with acetylcholine receptor [1], KRSICR [6mer-1-466] showed a Binding affinity (RU) of 148 RU.

RLVCRK [6mer-2-276] came in with a Binding affinity with acetylcholine receptor [2] of 153 RU.

In the assay with acetylcholine receptor [1], RRRQQK [6mer-1-447] gave a Binding affinity (RU) of 146 RU.

For RKLIYR [6mer-1-416], the Binding affinity (RU) with acetylcholine receptor [1] worked out at 153 RU.

Consider RRRIYR [6mer-1-424], for which the Binding affinity (RU) with acetylcholine receptor [1] amounted to 135 RU.

In the assay with acetylcholine receptor [1], KRGYQK [6mer-1-467] gave a Binding affinity (RU) of 121 RU.

RQQYRK [6mer-2-282]: the Binding affinity in the assay with acetylcholine receptor [2] was 151 RU.

Molecule RRGVCR [6mer-1-415] came in with a Binding affinity (RU) in the assay with acetylcholine receptor [1] of 135 RU.

RQIQKK [6mer-2-278] gave a Binding affinity with acetylcholine receptor [2] of 135 RU.

As to RRWVYK [6mer-1-459], the Binding affinity (RU) in the assay with acetylcholine receptor [1] amounted to 131 RU.

For KRVVLR [6mer-1-428], the Binding affinity (RU) with acetylcholine receptor [1] was found to be 139 RU.

Molecule KLRTKR [6mer-2-274] showed a Binding affinity in the assay with acetylcholine receptor [2] of 148 RU.

Take RRQRSR [6mer-1-411]: in the assay with acetylcholine receptor [1], the Binding affinity (RU) was 121 RU.

KRLYTR [6mer-1-452]: in the assay with acetylcholine receptor [1], the Binding affinity (RU) was determined as 141 RU.

KGQRKK [6mer-2-281] returned a Binding affinity with acetylcholine receptor [2] of 149 RU.

Molecule RRVIRR [6mer-1-446] displayed a Binding affinity (RU) in the assay with acetylcholine receptor [1] of 124 RU.

In the assay with acetylcholine receptor [1], RKLQYK [6mer-1-442] registered a Binding affinity (RU) of 131 RU.

On to KRVRLR [6mer-1-445], for which the Binding affinity (RU) with acetylcholine receptor [1] is 145 RU.

Turning to KSIYRR [6mer-2-280], the Binding affinity with acetylcholine receptor [2] is 153 RU.

RKVLLK [6mer-1-443]: the Binding affinity (RU) with acetylcholine receptor [1] was determined as 145 RU.

Take RKQFCR [6mer-1-413]: in the assay with acetylcholine receptor [1], the Binding affinity (RU) was found to be 148 RU.

With RRGFQK [6mer-1-438], the Binding affinity (RU) with acetylcholine receptor [1] was 142 RU.

As to RKLLCR [6mer-1-457], the Binding affinity (RU) in the assay with acetylcholine receptor [1] worked out at 121 RU.

As for KRGFYR [6mer-1-419], the Binding affinity (RU) with acetylcholine receptor [1] was 148 RU.

Consider KWRSRK [6mer-2-272], for which, in the assay with acetylcholine receptor [2], the Binding affinity worked out at 154 RU.

RKSVCK [6mer-1-417] showed a Binding affinity (RU) with acetylcholine receptor [1] of 139 RU.

RKVLYR [6mer-1-421] registered a Binding affinity (RU) with acetylcholine receptor [1] of 135 RU.

Consider KRVRQR [6mer-1-422], for which the Binding affinity (RU) with acetylcholine receptor [1] came to 154 RU.

As for KRRQTK [6mer-1-439], the Binding affinity (RU) in the assay with acetylcholine receptor [1] stood at 121 RU.

Turning to KKQLQK [6mer-1-430], the Binding affinity (RU) with acetylcholine receptor [1] turned out to be 144 RU.

KLRQRR [6mer-2-273]: in the assay with acetylcholine receptor [2], the Binding affinity turned out to be 131 RU.

Consider RRVYYR [6mer-1-441], for which the Binding affinity (RU) with acetylcholine receptor [1] was determined as 146 RU.

Turning to KKWQQK [6mer-1-453], in the assay with acetylcholine receptor [1], the Binding affinity (RU) was 154 RU.

For the molecule RRRFRR [6mer-1-431], in the assay with acetylcholine receptor [1], the Binding affinity (RU) was 144 RU.

In the case of RKRFSR [6mer-1-448], the Binding affinity (RU) with acetylcholine receptor [1] is 141 RU.

The molecule KRVYSK [6mer-1-440] gave a Binding affinity (RU) with acetylcholine receptor [1] of 153 RU.

RKQILK [6mer-1-462] came in with a Binding affinity (RU) with acetylcholine receptor [1] of 126 RU.

With RKGQLK [6mer-1-1458], the Binding affinity (RU) with acetylcholine receptor [1] amounted to 139 RU.

For KSRLRR [6mer-2-270], in the assay with acetylcholine receptor [2], the Binding affinity came out at 148 RU.

In the assay with acetylcholine receptor [1], RRGYTR [6mer-1-461] showed a Binding affinity (RU) of 142 RU.

RKGVQK [6mer-1-425] had a Binding affinity (RU) with acetylcholine receptor [1] of 131 RU.

Regarding KLITRR [6mer-2-275], the Binding affinity with acetylcholine receptor [2] was 135 RU.

Regarding KSLQRK [6mer-2-279], in the assay with acetylcholine receptor [2], the Binding affinity amounted to 148 RU.

For KWVQRK [6mer-2-269], the Binding affinity with acetylcholine receptor [2] was found to be 123 RU.

For RKGIQK [6mer-1-432], the Binding affinity (RU) with acetylcholine receptor [1] was 139 RU.

Consider RRQRLK [6mer-1-464], for which the Binding affinity (RU) with acetylcholine receptor [1] is 131 RU.

The molecule KRGRCK [6mer-1-449] gave a Binding affinity (RU) in the assay with acetylcholine receptor [1] of 135 RU.

Turning to KRWVCR [6mer-1-434], in the assay with acetylcholine receptor [1], the Binding affinity (RU) was found to be 137 RU.

With RRVFYK [6mer-1-455], the Binding affinity (RU) in the assay with acetylcholine receptor [1] is 126 RU.

Molecule KRSFRK [6mer-1-463] yielded a Binding affinity (RU) in the assay with acetylcholine receptor [1] of 153 RU.

In the assay with acetylcholine receptor [1], RRQVRK [6mer-1-418] yielded a Binding affinity (RU) of 123 RU.

Consider KKLFYK [6mer-1-436], for which, in the assay with acetylcholine receptor [1], the Binding affinity (RU) amounted to 148 RU.

In the assay with acetylcholine receptor [1], RRGFYR [6mer-1-460] showed a Binding affinity (RU) of 148 RU.

In the assay with acetylcholine receptor [1], KKGQYR [6mer-1-426] returned a Binding affinity (RU) of 131 RU.

As for RRQRRK [6mer-1-429], the Binding affinity (RU) with acetylcholine receptor [1] was 135 RU.

RKQVYK [6mer-1-465]: in the assay with acetylcholine receptor [1], the Binding affinity (RU) turned out to be 154 RU.

In the assay with acetylcholine receptor [1], RKWRCK [6mer-1-435] gave a Binding affinity (RU) of 135 RU.

With RKVVYK [6mer-1-450], the Binding affinity (RU) in the assay with acetylcholine receptor [1] came out at 151 RU.

In the assay with acetylcholine receptor [1], RKVRLR [6mer-1-451] gave a Binding affinity (RU) of 153 RU.
